In patent publication US20080293923A1 (Genentech, published 2008):

Molecular target: T1, hepatocyte growth factor beta chain (HGF β) containing a Cys604 to Ser mutation (human, UniProt P14210 495-728)
T1 construct: Expressed in insect cells (baculovirus secretion vector pAcGP67), Val495 placed immediately after the secretion signal; Numbering follows full length HGF starting with MWV as 1-3; also called HGF β-chain; HGF-beta
Experiment: complex formation in solution, size exclusion chromatography
Description: Elution fractions were assayed with SDS-PAGE, and those containing the complex were pooled. […] For this, Met, previously purified using Nickel chromatography as described above, was mixed with a combination of PNGase F (Roche) and Endoglycosidase A (Roche) at 1:100 enzyme:Met concentration and incubated at room temperature for 3 hours.

T1 sequence (P14210 other isoform, or with tags, fused parts or gaps limits assumed): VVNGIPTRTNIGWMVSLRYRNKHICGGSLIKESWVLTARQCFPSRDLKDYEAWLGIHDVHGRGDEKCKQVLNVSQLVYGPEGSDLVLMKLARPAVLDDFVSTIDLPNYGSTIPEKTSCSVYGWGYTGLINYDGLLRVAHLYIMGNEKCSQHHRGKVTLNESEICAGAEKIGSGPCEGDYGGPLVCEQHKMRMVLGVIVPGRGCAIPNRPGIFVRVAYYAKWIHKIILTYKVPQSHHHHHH

- binding result: binds
B1: extracellular fragment of the Met receptor containing residues 25 to 567 (Sema and PSI domain) with thrombin cleavable site and C-terminal (His)8-tag (receptor)
chain: ECKEALAKSEMNVNMKYQLPNFTAETPIQNVILHEHHIFLGATNYIYVLNEEDLQKVAEYKTGPVLEHPDCFPCQDCSSKANLSGGVWKDNINMALVVDTYYDDQLISCGSVNRGTCQRHVFPHNHTADIQSEVHCIFSPQIEEPSQCPDCVVSALGAKVLSSVKDRFINFFVGNTINSSYFPDHPLHSISVRRLKETKDGFMFLTDQSYIDVLPEFRDSYPIKYVHAFESNNFIYFLTVQRETLDAQTFHTRIIRFCSINSGLHSYMEMPLECILTELVPRGSTKKEVFNILQAAYVSKPGAQLARQIGASLNDDILFGVFAQSKPDSAEPMDRSAMCAFPIKYVNDFFNKIVNKNNVRCLQHFYGPNHEHCFNRTLLRNSSGCEARRDEYRTEFTTALQRVDLFMGQFSEVLLTSISTFIKGDLTIANLGTSEGRFMQVVVSRSGPSTPHVNFLLDSHPVSPEVIVEHTLNQNGYTLVITGKKITKIPLNGLGCRHFQSCSQCLSAPPFVQCGWCHDKCVRSEECLSGTWTQQICLPAIYKHHHHHHHH
notes: Expressed in insect cells (pAcGP67A); The complex was obtained with the unprocessed, single chain Met (not cut by thrombin); For better diffraction Met was deglycosylated with PNGase F and Endoglycosidase A before complex formation; also called Met fragment; Met Sema domain
